From publication PMC6599047, “Optimal composition and position of histidine-containing tags improves biodistribution of ^99mTc-labeled DARPin G3” (Scientific Reports, 2019)
Residue numbers refer to the chain shown, from its start. Values belong to the binder of their own block, whether it stands above or below them.

Target: T1, human epidermal growth factor receptor (HER2) (human (endogenous in SKOV3, BT474, …, UniProt P04626 23-1255))
T1 construct: HER2, endogenous on the human cancer cell lines SKOV3, BT474 (high expression) and DU145 (low expression); source: endogenous, on living SKOV3, BT474 and DU145 cells
Experiment: radioligand binding; LigandTracer, real time, living SKOV3 cells, room temperature; 0.5 and 2 nM radiolabeled G3 variant, then medium replaced for dissociation; fitted to a one-to-two Langmuir binding model (TraceDrawer); duplicates
Conditions: one partner purified

KD1 (high affinity interaction of the one-to-two fit): 118 ± 38 pM | KD2 (low affinity interaction of the one-to-two fit): 2.5 ± 1.5 nM
B1: [99mTc]Tc(CO)3-G3-H6 (DARPin G3 with a hexahistidine tag at the C-terminus) (designed binder)
chain: MDLGKKLLEAARAGQDDEVRILMANGADVNAKDEYGLTPLYLATAHGHLEIVEVLLKNGADVNAVDAIGFTPLHLAAFIGHLEIAEVLLKHGADVNAQDKFGKTAFDISIGNGNEDLAEILQKLNGSHHHHHH
modifications: [99mTc]Tc(CO)3 on the histidine-containing tag (site-specific radiolabel)
notes: whole chain as printed; source: E. coli BL21(DE3), purified (HisTrap HP, MonoQ); not shown: His6, C-terminal, kept

KD1 (high affinity interaction of the one-to-two fit): 90 ± 5 pM | KD2 (low affinity interaction of the one-to-two fit): 3.3 ± 0.2 nM
B2: [99mTc]Tc(CO)3-H6-G3 (DARPin G3 with a hexahistidine tag at the N-terminus) (designed binder)
chain: MRGSHHHHHHGSDLGKKLLEAARAGQDDEVRILMANGADVNAKDEYGLTPLYLATAHGHLEIVEVLLKNGADVNAVDAIGFTPLHLAAFIGHLEIAEVLLKHGADVNAQDKFGKTAFDISIGNGNEDLAEILQKLN
modifications: [99mTc]Tc(CO)3 on the histidine-containing tag (site-specific radiolabel)
notes: whole chain as printed; source: E. coli BL21(DE3), purified (HisTrap HP, MonoQ); not shown: His6, N-terminal, kept

KD1 (high affinity interaction of the one-to-two fit): 96 ± 3 pM | KD2 (low affinity interaction of the one-to-two fit): 1.2 ± 0.1 nM
B3: [99mTc]Tc(CO)3-(HE)3-G3 (DARPin G3 with a HEHEHE tag at the N-terminus) (designed binder)
chain: B2 chain with H6E, H8E, H10E
modifications: [99mTc]Tc(CO)3 on the histidine-containing tag (site-specific radiolabel)
notes: whole chain as printed; source: E. coli BL21(DE3), purified (HisTrap HP without imidazole in lysate and wash, MonoQ); not shown: (HE)3 (HEHEHE), N-terminal, kept

KD1 (high affinity interaction of the one-to-two fit): 89 ± 11 pM | KD2 (low affinity interaction of the one-to-two fit): 1.8 ± 0.5 nM
B4: [99mTc]Tc(CO)3-G3-(HE)3 (DARPin G3 with a HEHEHE tag at the C-terminus) (designed binder)
chain: DLGKKLLEAARAGQDDEVRILMANGADVNAKDEYGLTPLYLATAHGHLEIVEVLLKNGADVNAVDAIGFTPLHLAAFIGHLEIAEVLLKHGADVNAQDKFGKTAFDISIGNGNEDLAEILQKLNGSHEHEHE
modifications: [99mTc]Tc(CO)3 on the histidine-containing tag (site-specific radiolabel)
notes: whole chain as printed (after removal of SUMO at QIGG/DLGKK); source: E. coli BL21(DE3), made as a His6-SUMO fusion, purified (HisTrap HP, cut with ULP1, HisTrap flow-through, MonoQ); not shown: (HE)3 (HEHEHE), C-terminal, kept
